Source: paper PMC11213948 (2024)

Molecular target: G5_(1–1508)-FLAG
Assay: pull-down
Conditions: HEK293 cell lysates; western blot with anti-FLAG and anti-Xpress; n = 2; read off a plot

- response (relative intensity (PD/In)): 1.3
Substance: Xpress-His G5_(1–1508) mutant A951E [not stated] / G5_(1–1508)-FLAG [not stated] chain 1 A951E
